Test results published in the nanobody polyreactivity screen of Harvey et al. (2022).

Assay: yeast display, Sf9 membrane polyspecificity reagent, FACS + sequencing; frameworks hold sequencing errors
Summary of the method: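 Galactose induction of a Saccharomyces cerevisiae BJ5465 synthetic nanobody display library ran 36–48 hours. The cells were then stained for 1 hour at 4 °C with 10% biotinylated, detergent-solubilized Sf9 membrane reagent, pulled down on streptavidin microbeads and FACS-sorted into low and high (top ~1%) gates on expression and reagent-binding fluorescence. Labels for polyreactivity follow the gate of origin.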

Sequence | polyreactivity (PSR sort gate)
QVQLVESGGGLVQAGGSLRLSCAASGSTFYDYDMGWYSQAPGKESELVAAITSGGSTKYADSVKGRFTISRDNAKNTVYLQMNSLKPEDTAVYYCNADSQRPAYWDGYWGQGTKVTVSS | low polyreactivity
QDQLVESGGGLVQAGGSLRLSCAASGLIFYEYAMGWYRQAPGKERELVAAISRGGRTYYADSVKGRFTISRDNAKNTVYLQMNSLKPEDTAVYYCADRHWPEKYDYWGQGTHVTVSS | high polyreactivity
QVQLVESGGGLVQAGGSLRLSCAASGSIFRTNAMGWYREAPGKERELVAAITGRGGSTYYADSVKGRFTISRDYAKNTVYLQMNSLKPEDTAVYYCAAAYGTWKFLATTEDYWGQGTQVTVSS | high polyreactivity
QVQLVESGGGLVQAGGSLRLSCAASGSTFRGYAMGWYRQAPGKEREIVAAISRRGGTTYYADSVKGRFTISRDNAKNTVYLQMNSLKPEDTAVYYCNKVYYQHYLAFDYWGQGTQVTVSS | high polyreactivity
QVQLVESGGGLVQAGGTLRLRCAASGRTFKDYAMGWYRQAPGKERELVAAISWSGGDTYYADSVKGRFTISRDNAKNTVYFQLNSLKPEDTAVYYCNADPSGVFFYSLEFDYWGQGTQVTVSS | low polyreactivity
QVQLVESGGGLVQAGGSLRLSCAASGLTFYYYAMGWYRQAPGKERELVARISSGTSTYYADSVKGRFTISRDNAKNTVYLQMNCMKPEDTAVYYCTARRKLGSTHGPWGGLEYWGEGTQVTVSS | low polyreactivity
QVQLVESGGGLVQAGGSLRLSCAASGRIFGYYAMGWSRQAPGKEREFVAAINWRGSSTTYADSVKGRFTISRDNAKNTVYLQMNSLKPEDTAVYYCKRVFGGGQWVYGYWGQGTQVTVSS | high polyreactivity
QVQLVESGGGLVQAGGSLRLSCAASGIIFRYYAMGWYRQAPGKERELVAAISVSGGSTYDADSVKGRFTISRDNAKNTVYLQMNSLKPEDTAVYYCAARTRDFGYWGQGTQVTVSS | high polyreactivity
QVQLVESGGGLVQAGGSLRLSCAASGSIFPANAMGWYRQAPGKERELVAGISERGSSTYYAVSVKGRFTISRDNAKNTVYLQMNSLKPEDTAVYYCAADLVGRYWSSTHNWARGDYWGQVTQVTVSS | low polyreactivity
QVQLVESGGGLVQAGGSLRFSCAASGSTFQYYAMGWYRQAPGKEREFVAAIRSSGGTTYYADSVKGRFTLSRDNAKNTVYLQMNSLKPEDTAVYYCAATTKYNGRRSYFKFDYWGQGTQVTVSS | high polyreactivity
QVQLVESGGGLVQAGGSLRLSCAASGFIFATNAMGWYRQAPGKERELVAAISRSGGSTYYADSVKGRFTISRDNAKNTVYLQMYSLKPEDTAVYYCATPRYRYYTIYDYGYWGQGTQVNVSS | high polyreactivity
QDQLVESGGGLVQAGGSLSLSCAAYGRIFSYNAMGWYRQAPGKERELVAAISYSGGRTYYADSVKGRFTISRDTAKNTVYLQMNSLKPEDTAVYYCAAEAHLAGYYRYYGGYGYDYWGQGTQVTVSS | high polyreactivity
QVQLVESGGGLVQAGGSLRLSCAASGLIFTWYAMGWYRQAPGKERELVADISWSDDSTNYADSVKGRFTISRDNAKNTVYLQMNSLKPEDTAVYYCATQLDYGGRVGDADDYWGQGTQVTVSS | low polyreactivity
QVQLVESGGGLVQAGGSLRLSCAASGSTFVGYAMGWYRQAPGKERELVAAISYSGGSTYYADSVKGRFTISRDNAKNTVYLQMNSLKPEDTAVYYCAAEWSRHYYYGPRYDYWGQGTQVTVSS | low polyreactivity
QVQLVESGGGLVQAGGSLRLSCAASGRTFWTYTMGWYRQAPGKEREFVAAITFGDGSTSYADSVKGRFTISRDNAKNTVYLQMNSLKPEDTAVYSCAKRWRRRFVDVWSLYDYWGQGTQVTVSS | low polyreactivity
QVQLVESGLCLVQAGGSLRLSCAASGRIFRSYLMGWYRPAPGKERELVAAISNSGTRTYYADSVKGRFTISRDNAKNTVYLQKNSLKPEDTAVYYFITRRGRGSVDYDYWGQGSQVTVSS | high polyreactivity
QVQLVESGGGLVQAGGSLRLSCAASGRTFVPYAMGWYRQAPGKERELVAAISWSSVSTYYADSVKGRFTISRDNAKNTVYLQMNSLKPEDTAVYYCAAEYYTRVAEYYYWGQGTQVTVSS | high polyreactivity
QVQLVESGGGLVQAGGSLRLSCAASGRIFKLNAMGWYRQAPGNERELVAAITFAGGSTYYADSVKGRFTISRDIAKNTVYLQMNSLKPEDTAVYYCNADFSNVEMDYWGQGTQVNVSS | low polyreactivity
QVQLVESGGGLVQAGGSLRLSCAASGNTFVPYAMGWYRQAPGKEREFVAAISSTSGSTYYADSVKGRFTISRDNAKNTVYLQMNSLTPEDTAVYYCAAANHKCSRMDYWGQGTQVTVSS | high polyreactivity
QVQLVESGGGLVQAGGSLRLSCAASGRIFALYAMGWYRQAPGKDRELVAAITSSDGSTYYADSVKGRFTISRDIAKNSVYFQMKSLKPEDTAVYYSAAVWWRYYQDPYYYWGQGTQVTVSS | low polyreactivity
QVQLVESGGGLVQAGGSLRLSCASSGSILGRYAMGWYRQAPGKERELVAAISGSGGSTYYADSVKGRFTISRDNAKNTVYLQMNSLKPEDTAVYYCAAERFIYYQIFEYWGQGTQVTVSS | high polyreactivity
QVQLVESGGGLVQAGGSLRLSCDASGFTFYRYAMGWYRQAPGKERELVAAISSSGSSTYYADSVKGRFTISRDNAKNTVYLQMNSLKPEDTAVYYCAKRLGGSRPYYYWGQGTQVTVSS | high polyreactivity
